Reference: US20240262791A1 (University of California, published 2024)

Target: Spike protein on SARS-CoV-2 GFP Reporter Virus Particles (pseudotyped lentivirus), wild-type strain (SARS-CoV-2, UniProt P0DTC2 14-1273)
Test: cell-based or functional assay

B1: Wildtype SR4 nanobody (VHH)
VHH: QVQLVESGGGLVQAGGSLRLSCAASGFPVYSWNMWWYRQAPGKEREWVAAIESHGDSTRYADSVKGRFTISRDNAKNTVYLQMNSLKPEDTAVYYCYVWVGHTYYGQGTQVTVSA
IC50, inhibition of pseudovirus infection of 293T-ACE2 cells: 550 nM
